Laboratory results taken from US20230227514A1, “BETA-ARRESTIN COMPOSITIONS AND ASSOCIATED METHODS” (Duke University, priority 2020, published 2023).

How the values were obtained:
V2R [1] = molecular target: T1, V2R (Homo sapiens, UniProt P30518); assay: Co-immunoprecipitation of βarrestin2 constructs with HA-V2R; type: binding; details: HEK-293 cells stably expressing HA-V2R; AVP
T1 construct: HA (N); expressed in transfected cells
Description: Twenty-four hours post-transfection, cells were starved in PBS containing 10 mM HEPES (pH 7.4) for 1 h and stimulated with vehicle or agonist (isoproterenol, 1 μM; or AVP 1 μM, or Dopamine 1 μM) at 37° C. for desired times. After stimulations, β2AR stable cells were treated with the crosslinker DSP to a final concentration of 480 nM, and plates were rocked for 20 min at room temperature. Reaction was quenched by adding 25 μl of 1M Tris-Cl pH 8.5 per 1 mL volume of buffer in the dish and rocked for additional 5 min at room temperature.

V2R [2] = molecular target: T1, V2R; assay: BRET assay of βarrestin2 construct recruitment to V2R; type: cell-based; details: vasopressin stimulation, 15 min
Description: Changes following agonist treatment are expressed as a percentage of the BRET signal observed in unstimulated cells (top panel). The histogram (bottom panel) represents Bmax values of agonist-induced BRET as means±SEM of 3 independent experiments performed in duplicates. Lack of significance (“ns”) of changes in energy transfer was evaluated using unpaired t-test.
BRET assays. […] Titration assays were first completed, which allowed determination of the specificity of association among different interaction partners. See Nagi and Shenoy. 2019, supra; Gales et al. 2005. Nature methods 2:177-184; Nagi et al. 2015. Cellular and molecular life sciences: CMLS 72:3543-3557; Audet and Pineyro. 2011. Methods in molecular biology 756:149-163; and Rebois et al. 2006. Journal of cell science 119:2807-2818. […] BRET readings were acquired using Synergy Neo2 plate reader and obtained 5 min after manual addition of Rluc substrate, coelenterazine h (Promega) to a final concentration of 5 μM.
The BRET signal generated was determined by calculating the ratio of light emitted by YFP (520-550 nm) over the light emitted by Rluc (440-480 nm). These values were then corrected by subtracting the background signal (detected when the Rluc-tagged construct was expressed without acceptor) from the BRET signal detected in cells co-expressing both donor and acceptor constructs. […]

[3] = molecular target: T2, D1 dopamine receptor (D1R) (Homo sapiens, UniProt P21728); assay: Confocal trafficking and colocalization with D1R; type: cell-based; details: HEK-293 cells with stable D1R expression; dopamine 15 minutes
T2 construct: expressed in transfected cells
T2 sequence (P21728 whole entry): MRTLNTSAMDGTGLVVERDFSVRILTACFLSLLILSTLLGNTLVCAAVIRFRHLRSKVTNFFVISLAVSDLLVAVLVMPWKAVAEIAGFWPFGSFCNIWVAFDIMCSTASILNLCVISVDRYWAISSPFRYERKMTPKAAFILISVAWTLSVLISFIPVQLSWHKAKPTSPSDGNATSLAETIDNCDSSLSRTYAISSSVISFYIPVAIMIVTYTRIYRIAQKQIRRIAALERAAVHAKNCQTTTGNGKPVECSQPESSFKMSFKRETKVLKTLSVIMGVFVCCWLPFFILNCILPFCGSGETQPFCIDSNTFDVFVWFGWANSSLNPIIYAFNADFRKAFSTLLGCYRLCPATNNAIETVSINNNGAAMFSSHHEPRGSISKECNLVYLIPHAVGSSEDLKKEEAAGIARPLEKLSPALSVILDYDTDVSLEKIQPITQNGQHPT
Description: Immunostaining and confocal microscopy. […] Twenty-four hours post-transfection, cells were serum-starved for 4 h, and either left untreated or treated with respective agonists for the indicated times in the Figure descriptions. After stimulation, cells were fixed with 5% formaldehyde diluted in phosphate-buffered saline (PBS), permeabilized with 0.1% Triton in PBS containing 2% bovine serum albumin for 20 min and incubated at room temperature with appropriate primary antibody. The next day, cells were washed three times with PBS and incubated with Alexa594 conjugated secondary antibody for 1 h, followed by repeated washes using PBS. Confocal images were acquired using Zeiss LSM510 laser-scanning microscope using multitrack sequential with excitation (488 and 568 nm) and emission (BP 505-550 nm and LP 585 nm) filter sets. Images (1024×1024 pixels) were collected using either a 63× or 100× oil immersion lens. Images were processed for Figure presentation using Adobe Photoshop software, and any increase or decrease of brightness/contrast was applied to the entire image. The nuclear rim localization of YFP-βarrestin2-SUMO1 is readily visualized in cells with low to moderate expression of YFP-protein. In cells with high expression, this localization is present, and can be discerned by enlarging sections of the nuclear rim. […]

β2AR = molecular target: T3, β2AR (Homo sapiens, UniProt P07550); assay: Chemical cross-linking and co-immunoprecipitation of βarrestin2 constructs with Flag-β2AR; type: binding; details: HEK-293 cells stably expressing FLAG-β2AR; 5 minutes of 1 μM isoproterenol; DSP cross-linking, co-IP, Western blot
T3 construct: Flag (N); expressed in transfected cells
Description: Cross-linking, Immunoprecipitation and Immunoblotting. […] Twenty-four hours post-transfection, cells were starved in PBS containing 10 mM HEPES (pH 7.4) for 1 h and stimulated with vehicle or agonist (isoproterenol, 1 μM; or AVP 1 μM, or Dopamine 1 μM) at 37° C. for desired times. After stimulations, β2AR stable cells were treated with the crosslinker DSP to a final concentration of […], and plates were rocked for 20 min at room temperature. Reaction was quenched by adding 25 μl of 1M Tris-Cl pH 8.5 per 1 mL volume of buffer in the dish and rocked for additional 5 min at room temperature.
Harvested cells were washed with ice-cold PBS (pH 7.4) and solubilized in an ice-cold lysis buffer (50 mM HEPES (pH 7.5), 2 mM EDTA, 250 mM NaCl, 10% (v/v) glycerol, and 0.5% (v/v) IGEPAL CA-630) that was supplemented with phosphatase and protease inhibitors (1 mM sodium orthovanadate, 1 mM sodium fluoride, 1 mM phenylmethylsulfonyl fluoride, 5 μg/ml leupeptin, 5 μg/ml aprotinin, 1 μg/ml pepstatin A, and 100 μM benzamidine). […] Cell lysate protein concentrations were determined by Bradford protein assay and equivalent μg of proteins were immunoprecipitated using anti-FLAG M2 antibody resin (for FIG. 2) or Anti-HA magnetic beads from Thermo Pierce (for FIG. 5, FIG. 7, and FIG. 8). […] HA-D2R or HA-V2R were detected using an anti-HA IgG (Cell Signaling Technologies). […]

βarrestin2-SUMO1: rat βarrestin2 polypeptide fused to human SUMO1 (SEQ ID NO:1); used YFP- or Flag-tagged
binding with agonist activated V2Rs by co-immunoprecipitation (V2R [1]): equivalent binding | magnitude of interaction with activated V2R defined by BRET, versus βarrestin2 (V2R [2]): No significant differences | association with D1R after dopamine activation (confocal) [3]: strongly and stably | binding to activated β2AR relative to WT βarrestin2 (β2AR): 2-3 fold
